Experimental data from paper doi:10.1101/2025.05.23.655772, “A Proteolytic Switch: USP5 controls SDE2 function via UBL-directed cleavage” (bioRxiv, 2025).
Changes are numbered by the printed parent chain. Names may count otherwise.

B1: SDE2 N-terminal ubiquitin-like domain, SDE2UBL(1-77) (domain or fragment, human, UniProt Q6IQ49 1-77, looked up)
chain: MAEAAALVWIRGPGFGCKAVRCASGRCTVRDFIHRHCQDQNVPVENFFVKCNGALINTSDTVQHGAVYSLEPRLCGG
notes: Silencing Defective 2 (SDE2), human, residues 1-77 (ubiquitin-like domain ending in the Gly-Gly motif); source: E. coli BL21 (DE3), purified (Ni-NTA, SUMO protease cleavage, SEC); not shown: His, N-terminal, cleaved; SUMO, N-terminal, cleaved
B2: HA-SDE2UBL-PA, activity-based probe derived from SDE2UBL (domain or fragment, human, UniProt Q6IQ49 1-76, looked up)
chain: MAEAAALVWIRGPGFGCKAVRCASGRCTVRDFIHRHCQDQNVPVENFFVKCNGALINTSDTVQHGAVYSLEPRLCG
modifications: Gly77 replaced with a propargyl electrophilic warhead (C-terminal propargylamine)
notes: Silencing Defective 2 (SDE2), human, residues 1-76 (SDE2UBL with Gly77 truncated); Forms a covalent adduct with the catalytic cysteine of reactive enzymes; also called HA-SDE2UBL-ABP; SDE2UBL-ABP; not shown: HA, N-terminal, kept
B3: ubiquitin-specific protease 5, wild type (enzyme, human, UniProt P45974 1-858, looked up)
chain: MAELSEEALLSVLPTIRVPKAGDRVHKDECAFSFDTPESEGGLYICMNTFLGFGKQYVERHFNKTGQRVYLHLRRTRRPKEEDPATGTGDPPRKKPTRLAIGVEGGFDLSEEKFELDEDVKIVILPDYLEIARDGLGGLPDIVRDRVTSAVEALLSADSASRKQEVQAWDGEVRQVSKHAFSLKQLDNPARIPPCGWKCSKCDMRENLWLNLTDGSILCGRRYFDGSGGNNHAVEHYRETGYPLAVKLGTITPDGADVYSYDEDDMVLDPSLAEHLSHFGIDMLKMQKTDKTMTELEIDMNQRIGEWELIQESGVPLKPLFGPGYTGIRNLGNSCYLNSVVQVLFSIPDFQRKYVDKLEKIFQNAPTDPTQDFSTQVAKLGHGLLSGEYSKPVPESGDGERVPEQKEVQDGIAPRMFKALIGKGHPEFSTNRQQDAQEFFLHLINMVERNCRSSENPNEVFRFLVEEKIKCLATEKVKYTQRVDYIMQLPVPMDAALNKEELLEYEEKKRQAEEEKMALPELVRAQVPFSSCLEAYGAPEQVDDFWSTALQAKSVAVKTTRFASFPDYLVIQIKKFTFGLDWVPKKLDVSIEMPEELDISQLRGTGLQPGEEELPDIAPPLVTPDEPKGSLGFYGNEDEDSFCSPHFSSPTSPMLDESVIIQLVEMGFPMDACRKAVYYTGNSGAEAAMNWVMSHMDDPDFANPLILPGSSGPGSTSAAADPPPEDCVTTIVSMGFSRDQALKALRATNNSLERAVDWIFSHIDDLDAEAAMDISEGRSAADSISESVPVGPKVRDGPGKYQLFAFISHMGTSTMCGHYVCHIKKEGRWVIYNDQKVCASEKPPKDLGYIYFYQRVAS
notes: ubiquitin-specific protease 5 (USP5), human; No removal of the His tag is described; also called USP5; USP5^WT; source: E. coli BL21 (DE3), purified (Ni-NTA, SEC)
B4: catalytically inactive USP5 C335A (enzyme, human, UniProt P45974 1-858, looked up)
chain: B3 chain with C335A
notes: ubiquitin-specific protease 5 (USP5), human, catalytic cysteine mutated; The His tag is used for detection in the TR-FRET assay; also called His-USP5^C335A; source: E. coli BL21 (DE3), purified (Ni-NTA, SEC)

Experiments:
Details in all cases: both partners purified
[1] = target: B3; test: ITC; ITC200 at 298 K; 50 mM HEPES, 100 mM NaCl, 1 mM TCEP, pH 7.5; SDE2 construct or monoubiquitin titrated into USP5 (10-12 µM); duplicate
[2] = target: B4; test: as above
[3] = target: B3; test: thermal shift assay; USP5^WT incubated with ABP for 1 h at 37 °C in PBS, 1 mM DTT, then SYPRO orange, 10-95 °C; Tm of the USP5-ABP covalent complex; triplicate
monoubiquitin = target: T1, monoubiquitin (UniProt P0CG48 1-76); test: ITC; ITC200 at 298 K; 50 mM HEPES, 100 mM NaCl, 1 mM TCEP, pH 7.5; SDE2 construct or monoubiquitin titrated into USP5 (10-12 µM); duplicate
T1 construct: ubiquitin, the mature monomer

Binder B1 has a Kd [1] of 26.6 ± 5 µM and a Kd [2] of 1.67 µM.

For B2, the “Tm of the covalent complex” value [3] was 56.4 ± 0.2 °C.

B3: binds (monoubiquitin).

B4: binds (monoubiquitin).
